T1: Mmm1-SOG (miniSOG fused to the cytosolic face of Mmm1) (S. cerevisiae), P41800
T1 chain: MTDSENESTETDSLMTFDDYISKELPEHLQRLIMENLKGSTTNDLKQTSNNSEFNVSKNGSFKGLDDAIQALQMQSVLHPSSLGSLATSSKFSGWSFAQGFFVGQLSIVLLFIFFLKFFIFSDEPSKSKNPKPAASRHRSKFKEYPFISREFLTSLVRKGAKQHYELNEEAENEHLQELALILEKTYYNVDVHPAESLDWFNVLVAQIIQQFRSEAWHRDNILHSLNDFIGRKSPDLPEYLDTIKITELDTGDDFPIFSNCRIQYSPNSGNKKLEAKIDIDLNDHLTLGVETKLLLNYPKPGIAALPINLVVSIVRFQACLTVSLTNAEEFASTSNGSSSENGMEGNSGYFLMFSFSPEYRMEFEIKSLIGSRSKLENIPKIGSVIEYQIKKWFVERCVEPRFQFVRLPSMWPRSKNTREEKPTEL

B1: Mdm34-SOS (IFP1.4 fused to the cytosolic face of Mdm34), P53083 1-459 (natural protein)
chain: MSFRFNEAVFGDNSFNERIREKLSTALNSPSKKKLDILKSGIKVQKVDFPTIPQLEILDLDIITQPKSLAKGICKISCKDAMLRIQTVIESNLLLINEQDTPSFTMPQLINNGSFTIPITMTFSSIELEAITNIFVKNPGIGISFNDVDLDFKFDCSVKILQSTIERRLKESMHVVFKDVLPSLIFNTSQNWFTNRGESTSTIPGKREHHHQQTTMSRNVILDGSDFQELSPINMLRLSSIVSSRSTLSLHSTVMNSLSAIPGCLERQNLYRFISRMPSLNNYYSSQSFPQPKSSTVSSKQLVKPFYCSHNLLPKTVLDSSQYDLATITKIQSRLFDRSNSNDDNAKPRRRKIKCKKTRTPSNLQSQGEQAVDDSTAIETVTSTPVQTPIPELEEQSPPYLKTTVSIRDKYVIPEKISLNLDSKKDTSKKKPFYFIGLNSQEPSNNWKWGMEDSPPPYH
B2: SOS-Mdm34 (IFP1.4 fused to the N-terminus of Mdm34, facing the intermembrane space), P53083 1-459 (natural protein)
chain: B1 chain

Biological target: T1, Mmm1-SOG (miniSOG fused to the …)
Assay: singlet oxygen triplet energy transfer
Details: remark: other sources report otherwise

Binder	STET signal
B1	0.082 s⁻¹
B2	0.052 s⁻¹
